The test has as its target 抗原(Biacore 8K表面等离子共振实验，未指明). The experiment in a line: SPR, Biacore 8K; antigen and format not given. In general terms: Surface plasmon resonance follows binding to a sensor surface in real time, without labels.

B1: 抗SARS-CoV-2的单克隆抗体1H8 (antibody, V domains shown)
VH: EVQLVESGGGLVQPGGSLRLSCAASEITVSSNYMNWVRQAPGKGLEWVSVIYSGGTTYYADSVKGRFTISRDNSENTLYLQMNSLRAEDTAVYYCARDLMEVGGMDVWGQGTTVTVSS
VL: DIVMTQSPSSLSASVGDRVTITCRASQGVSNYLAWYQQKPGKVPKLLIYAASTLQSGVPSRFSGSRSGTDFTLTISSLQPEDVATYYCQNYNSAPFAFGPGTKVEIK
Regarding B1, the Kd – broadly, the free concentration of one partner at which half of the binding sites on the other are occupied at equilibrium, for simple one-to-one binding – was 18.7 nM; the koff (as a rule, the first-order rate constant of dissociation) came to 0.00138 s⁻¹; the kon (as a rule, the rate constant with which the complex forms) was found to be 73600 M⁻¹ s⁻¹.

Values taken from patent CN113817050A.
